Data on 16 sequences can be found in the DeepSol protein solubility set.

The nature of this series: soluble on expression in E. coli; label from the status in PepcDB or PDB records.
Regarding “MTGPTTDADAAVPRRVLIAEDEALIRMDLAEMLREEGYEIVGEAGDGQEAVELAELHKPDLVIMDVKMPRRDGIDAASEIASKRIAPIVVLTAFSQRDLVERARDAGAMAYLVKPFSISDLIPAIELAVSRFREITALEGEVATLSERLETRKLVERAKGLLQTKHGMTEPDAFKWIQRAAMDRRTTMKRVAEVVLETLGTPKDT”, the “soluble on expression in E. coli” value is on record as “soluble”. For the sequence “MTGYGSLFERLNGDADKRVGWSREVSAMASVAAHLGKMLSTRAGSVQTLSDYGLPDLNDMRLSLHDSLSQARSAIEGFIEAYEPRLSDVRVVSLPRDNDQLRLAFSIEGLLEVEGFKRQVSFSACLDGSGQVKVS”, the “soluble on expression in E. coli” value is “not soluble”. Consider “MTGYPDVAAFDLDYTIWPCYCDTHLHGPFKPVKSSNGEVLTIICRDGYELTIYKDIPRILGDLKDNGVKLMTASRTWAPEIAQEILKIFKVKYAGVVTPLANLFDEFQWGERSKIGHLRDGLKDLYNTSDLKSKKICLFDDESRNKEVEKYGVKFVYVRDPENGPSWKLYQDYLSGKV”, for which the “soluble on expression in E. coli” value is on record as “not soluble”. Consider “MTHIIIDGDACPVVDSIIDLTTETGIFVTIIRSFSHFSNQLYPPHVSTLYVDDGPDAVDYKIVQLSTKDDIVVTQDYGLASLLVDKVLIVMHHNGKIYNSKNIQQLLDKRYINAQIRKQGGRHKGPPPFTKQDQKVFEQSLLKVIHRIKELDLEHHHHHH”, for which the “soluble on expression in E. coli” value was “soluble”. With “MTHQTHTIAESNNFIVLDKYIKAEPTGDSYQSESDLERELIQDLRNQGYEFISVKSQSAMLANVREQLQNLNGVVFNDSEWRRFTEQYLDNPSDGILDKTRKIHIDYICDFIFDDERLENIYLIDKKNLMRNKVQIIQQFEQAGSHANRYDVTILVNGLPLVQIELKKRGVAIREAFNQIHRYSKESFNSENSLFKYLQLFVISNGTDTRYFANTTKRDKNSFDFTMNWAKSDNTLIKDLKDFTATCFQKHTLLNVLVNYSVFDSSQTLLVMRPYQIAATERILWKIKSSFTAKNWSKPESGGYIWHTTGSGKTLTSFKAARLATELDFIDKVFFVVDRKDLDYQTMKEYQRFSPDSVNGSENTAGLKRNLDKDDNKIIVTTIQKLNNLMKAESDLPVYNQQVVFIFDECHRSQFGEAQKNLKKKFKRYYQFGFTGTPIFPENALGSETTASVFGRELHSYVITDAIRDEKVLKFKVDYNDVRPQFKSLETETDEKKLSAAENQQAFLHPMRIQEITQYILNNFRQKTHRTFPGSKGFNAMLAVSSVDAAKAYYATFKRLQEEAANKSATYKPLRIATIFSFAANEEQNAIGEISDETFDTSAMDSSAKEFLDAAIREYNSHFKTNFSTDSNGFQNYYRDLAQRVKNQDIDLLIVVGMFLTGFDAPTLNTLFVDKNLRYHGLMQAFSRTNRIYDATKTFGNIVTFRDLERSTIDAITLFGDKNTKNVVLEKSYTEYMEGFTDAATGEAKRGFMTVVSELEQRFPDPTSIESEKEKKDFVKLFGEYLRAENILQNYDEFATLKALQQIDLSDPVAVEKFKAEHYVDDEKFAELQTIRLPADRKIQDYRSAYNDIRDWQRREKEAEKKEKSTTDWDDVVFEVDLLKSQEINLDYILGLIFEHNRQNKGKGEMIEEVKRLIRSSLGNRAKEGLVVDFIQQTNLDDLPDKASIIDAFFTFAQREQQREAEALIKEENLNEDAAKRYIRTSLKREYATENGTELNETLPKLSPLNPQYKTKKQAVFQKIVSFIEKFKGVGGKI” the entry was “soluble”; with “MTIDMRLRPPLQSWKSTAQFKEGTAYYPTRYGFPRPKSVGTQDIGDLLAEMDEADITWGVVMGRQSAPPHGIVPNEEISDFVRQHADRFVGFAGIDLRDIDKAVADLDGYARSDEFKGISIEPGAGFVPLYSDDPSLFPLYERAQELQLPLSITLSGYLSSMAGHPTSYGNPSPVATVARKFPRLKIVVSHAAWPNVMPMLEVAFLHDNVYVSPDLYMNHVHTPGAHEYINAAKFYLADRLLFGTAYPSRPLKESVAGFRQWDLDSELAEKILHRNAARLLGLELEHHHHHH”, “not soluble”; with “MTIDTDLDRTPAASSENPVEARRTQARAWFEGLRDRICAEIETLEREAPAELFPGEPATFTYKPWQRKTGAGGGVGGFLSNGRLFEKIGIHTSSANGKLTPEMAKNVPGDGSLDYVSTSISLIMHPRSPRVPTVHMNTRFLSTSQGWFGGGADLTPMLPEQRSQDAEDAVIFHTAMKHACDAHDPAYYDKFKPWADTYFFLPHRGVARGVGGIFFDYLNSGDFDRDFAFTRAVGSALLDVYPKIVRKRMIEPWTDAERAQQLACRGLYVEFNLLYDRGTMFGLQTGGNTETIMSSMPPLVSWSMAGDPLEHHHHHH”, “not soluble”. “MTIHLISFASILHKQASLRNSHEAILSELEKYYTVKLIDYQDMDKLGSDDFKIIFIATGGVERLVIQHFERLPRPAILLADGMQNSLAAALEISTWLRGRGMKSEILHGELPSIIQRVHILYNNFRAQRSLFGKRIGVIGTPSSWLVASNVDYLLAKRRWGIEYIDIPLERVYEHFKQITDDQVGASCAAVASQALACREGTPEDLIKAMRLYRAIKRICEEEKLEALTLSCFKLIDQIDTTGCLALSLLNDDGIMAGCEGDLQSIFTLLAVKALTGKEGFMANPSTINTRTNELILAHCTIGLKQTERYIIRNHFETEKGIAIQGLLPTGDVTIVKCGGECLDEYYLSTGTLTENTNYINMCRTQVRIRMNTPADYFLKNPLGNHHIMIHGNYEEALNEFLLSNACKRTE”: the “soluble on expression in E. coli” value is recorded as “not soluble”.

For “MTIHQHPHVTDRDAHFVGGGIASLAGAAFLVRDGNMPGENIHVYEKLDVVGGAMDGAGDPDEAYLIRGGRMFNYPAYECTWDLFETIPSLEDDSRSVKAVMDEFNETHPSYAKTRLMHEGERIDAGEYGLTRQHRQSIARLLLTPEPRLGDTRIEEWFDESFLETNFWYVWATIFAFQPWHSVAEVRRYMYRFLHEFPQLHTMEGIDRTKYNQYDSMILPLRRWLEDRGVSFEYGHEVTDMDIVPSRTGRTVERLYCETDSGTETVPVEPSDLVFVTNGSMTDGSSIGGMDEAPELNETGASWELWKSIAEDNPQFGNPSVFADNVTETKWESFTVTLHNTDLFDHIVDFTNEEPGNGLVTYLGSNWLLSTVVAAQPHFANQPDDVKVFWGYALFPDREGNYVEKPMSECTGREILQELCYHLQCEERLPEILDDVTCIPAMMPFITAHFQPREPGDRPDVVPDGSNNLAFLGQYAEQPRDVVFTVEYSVRSAMTAVYEMLDLDREVPPVSKHYRKPGVIADTVRAAYRLEHHHHHH”, the “soluble on expression in E. coli” value was “not soluble”. As to “MTINTEVFIRRNKLRRHFESEFRQINNEIREASKAAGVSSFHLKYSQALLDRAIQREIDETYVFELFHKIKDHVLEVNEFLSMPPRPDIDEDFIDGVEYRPGRLEITDGNLWLGFTVCKPNEKFKDPSLQCRMAIINSRRLPGKASKAVIKTQ”, the “soluble on expression in E. coli” value is “soluble”.

As to “MTIQQAMHQMPGKPGRDAIAEGETPRKASSDEAGCPRNDSTPTGSGLLQAALTRDNLQLAFKQVRANKGAAGVDGLGIVETAEHLKTAWPGIRAQLLAGTYRPDPVRRVLIPKPGGGERKLGIPTVTDRLIQQALLQVLQPLLDPDFSNHSYGFRPERSAHQAVLAAQQYIHSGRQIVVDVDLEQFFDCVEHDVLIARLGRKVKDRDVLRLIRAYLNSGALIEGMVMTSTRGTPQGGPLSPLLANVVLDEVDKELERRGHCFVRYADDANVYVRSPKAGQRVMALLRRLYGRLGLRVNESKSAVASAFGRKFLGFSFWQSPKGEVKRRVALKALQVFKHRIRGLTPRSGGRSLPQVVENLRPYLLGWKAYFGLSQAPGLWKSLDGWIRRRLRAIQLKQWKTGKTTYRELRKLGANSDLAAAIASDSHRTWHNSAGLIHGVLTVAWFDRLGLPRLYLEHHHHHH”, the “soluble on expression in E. coli” value was “not soluble”.

As to “MTIRSYKNLNLVRANIETESRQFIENKNYSIQSIGPMPGSRAGLRVVFTRPGVNLATVDIFYNGDGSTTIQYLTGANRSLGQELADHLFETINPAEFEQVNMVLQGFVETSVLPVLELSADESHIEFREHSRNAHTVVWKIISTSYQDELTVSLHITTGKLQIQGRPLSCYRVFTFNLAALLDLQGLEKVLIRQEDGKANIVQQEVARTYLQTVMADAYPHLHVTAEKLLVSGLCVKLAAPDLPDYCMLLYPELRTIEGVLKSKMSGLGMPVQQPAGFGTYFDKPAAHYILKPQFAATLRPEQINIISTAYTFFNVERHSLFHMETVVDASRMISDMARLMGKATRAWGIIKDLYIV”, the “soluble on expression in E. coli” value is “soluble”. As to “MTKALFFDIDGTLVSFETHRIPSSTIEALEAAHAKGLKIFIATGRPKAIINNLSELQDRNLIDGYITMNGAYCFVGEEVIYKSAIPQEEVKAMAAFCEKKGVPCIFVEEHNISVCQPNEMVKKIFYDFLHVNVIPTVSFEEASNKEVIQMTPFITEEEEKEVLPSIPTCEIGRWYPAFADVTAKGDTKQKGIDEIIRHFGIKLEETMSFGDGGNDISMLRHAAIGVAMGQAKEDVKAAADYVTAPIDEDGISKAMKHFGII”, the “soluble on expression in E. coli” value is reported as “soluble”. Turning to “MTKHPPNRRGISFEVGAQLEARDRLKNWYPAHIEDIDYEEGKVLIHFKRWNHRYDEWFCWDSPYLRPLEKIQLRKEGLHEEDGSSEFQINEQVLACWSDCRFYPAKVTAVNKDGTYTVKFYDGVVQTVKHIHVKAFSKDQNIVGNARPKETDHKSLSSSPDKREKFKEQRKATVNVKKDKEDKPLKTEKRPKQPDKEGKLICSEKGKVSEKSLPKNEKEDKENISENDREYSGDAQKKTSQTPFHSSYCCGFKLSNFATQLEHHHHHH”, the “soluble on expression in E. coli” value was “soluble”.

Turning to “MTKIFIRDDNGGTEMSQDPFQEREAEKYANPIPSREFILEHLTKREKPASRDELAVELHIEGEEQLEGLRRRLRAMERDGQLVFTRRQCYALPERLDLVKGTVIGHRDGYGFLRVEGRKDDLYLSSEQMKTCIHGDQVLAQPLGADRKGRREARIVRVLVPKTSQIVGRYFTEAGVGFVVPDDSRLSFDILIPPDQIMGARMGFVVVVELTQRPTRRTKAVGKIVEVLGDNMGTGMAVDIALRTHEIPYIWPQAVEQQVAGLKEEVPEEAKAGRVDLRDLPLVTIDGEDARDFDDAVYCEKKRGGGWRLWVAIADVSYYVRPPTPLDREARNRGTSVYFPSQVIPMLPEVLSNGLCSLNPQVDRLCMVCEMTVSSKGRLTGYKFYEAVMSSHARLTYTKVWHILQGDQDLREQYAPLVKHLEELHNLYKVLDKAREERGGISFESEEAKFIFNAERRIERIEQTQRNDAHKLIEECMILANISAARFVEKAKEPALFRIHDKPSTEAITSFRSVLAELGLELPGGNKPEPRDYAELLESVADRPDAEMLQTMLLRSMKQAIYDPENRGHFGLALQSYAHFTSPIRRYPDLMLHRAIKYLLAKEQGHQGNTTETGGYHYSMEEMLQLGQHCSMAERRADEATRDVSDWLKCDFMLDQVGNVFKGVISSVTGFGFFVRLDDLFIDGLVHVSSLDNDYYRFDQVGQRLMGESSGQTYRLGDRVEVRVEAVNMDERKIDFSLISSERAPRNVGKTAREKAKKGDAGKKGGKRRQVGKKVNFEPDSAFRGEKKTKPKAAKKDARKAKKPSAKTQKIAAATKAKRAAKKKVAE”, the “soluble on expression in E. coli” value is “not soluble”.

Consider “MTKKLHIKTWGCQMNEYDSSKMADLLGSTHGYELTEIAEEADVLLLNTCSIREKAQEKVFHQLGRWKALKDLNPNLIIGVGGCVASQEGAHIRERAHYVDVIFGPQTLHRLPEMINHVQGTRSPIVDISFPEIEKFDRLPEPRADGPTAFVSIMEGCNKYCTFCVVPYTRGEEVSRPCDDVLFEIAQLAAQGVREVNLLGQNVNAYRGETYDGEICSFAELLRLVAAIDGIDRVRFTTSHPIEFTDDIISVYEDTPELVSFLHLPVQSGSDRVLTMMKRRHTALEYKAIIRKLHNARPGILISSDFIIGFPGETQADFEQTMKLIADVNFDMSYSFVYSARPGTPAADMVDDVLEEEKKQRLYLLQDRITKQAMRFSRLMLGTVQRILVEGTSRKSVMELSGRTENNRVVNFEGTPDMIGKFVDVEIVDVYTNSLRGIVVRTEDQMDLRVHESPSSVIARTRKENEIGVGFYQPLEHHHHHH”, for which the “soluble on expression in E. coli” value is recorded as “soluble”.
